{"source": "patent JP2022028645A", "assay_in_all_cases": "SPR (Biacore T200), TYRP1 ECD-Fc captured by anti-PGLALA antibody, 1:1 Langmuir fit", "key": {"[1]": {"molecular_target": "Mouse TYRP1 extracellular domain (ECD), monomeric fusion to human Fc domain with knob-into-hole and PG LALA modifications and C-terminal Avi-tag (mouse) [IgG part: P01857]"}, "[2]": {"molecular_target": "Human TYRP1 extracellular domain (ECD), monomeric fusion to human Fc domain with knob-into-hole and PG LALA modifications and C-terminal Avi-tag (human) [IgG part: P01857]"}, "[3]": {"molecular_target": "Cynomolgus TYRP1 extracellular domain (ECD), monomeric fusion to human Fc domain with knob-into-hole and PG LALA modifications and C-terminal Avi-tag (cynomolgus monkey) [IgG part: P01857]"}}, "note": "pKd: −log10 of the molar value."}
{"substance": "親TA99抗体 (parental TYRP1 antibody TA99)", "values": [{"measurement": "pKd", "setting": "[1]", "result": 9.51}, {"measurement": "pKd", "setting": "[2]", "result": 10.05}, {"measurement": "pKd", "setting": "[3]", "result": 9.92}]}
